In US20230322910A1 (published 2023):
Substitutions are numbered along the chain they refer to.

Columns and labels:
[1] = biological target: T1, PfRipr5 (fragment of Ripr, positions 720-934 of SEQ ID NO: 17), made by wheat germ cell-free synthesis with … (UniProt O97302 720-934); assay: SPR
T1 chain: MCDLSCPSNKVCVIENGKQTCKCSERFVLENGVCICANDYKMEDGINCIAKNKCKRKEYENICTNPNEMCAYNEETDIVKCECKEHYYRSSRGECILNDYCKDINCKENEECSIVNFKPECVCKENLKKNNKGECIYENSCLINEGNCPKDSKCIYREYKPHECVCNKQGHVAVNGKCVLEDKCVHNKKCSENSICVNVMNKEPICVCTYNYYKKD

[2] = biological target: 4B7; assay: SPR; U-value 95, negligible response

B1: mouse monoclonal antibody 29B11 (antibody, V domains shown)
VH: EVQLQQSGPELMKPGASVKISCKTSGYTFTEYTMHWVKQSHGKSLEWIGGIDPNNGITIYDQKFKGKATLTVDKSSSTAYMELRSLTSEDSAVYYCTRYYYGHYFDYWGQGTTLTVSS
VL: DVLMTQTPLSLPVSLGDQASISCRSSQSIVHNNGHTYLEWYLQKPGQSPKLLIYKVSNRFSGVPDRFSGSGSGTDFTLKISRVEAEDLGIYYCFQDSHVPWTFGGGTKLEIKR
Kd [1]: 2.19 nM

B2: mouse monoclonal antibody 26H4 (antibody, V domains shown)
VH: B1 VH with M12V, I57V, D61N, K63N, Y95H, T97A
VL: B1 VL with N32S, H35N, I90V, D96N, P100T
Kd [1]: 0.69 nM

B3: - (other)
chain: T1 chain
Kd [2]: 0.0693 nM
